Assay [1] has as its target IpaB^28–226-Alexa568 (Shigella flexneri). Description: fluorescence polarisation.
The target is the same in assay [2]. Description: fluorescence polarisation. This is another data set of the same source. A general note: In fluorescence polarisation assays a small probe gives low polarisation when free and higher when bound to something large.
Assay [3] has as its target IpaD (invasion plasmid antigen D) (Shigella flexneri, UniProt P18013). Description: fluorescence polarization, single site saturation fit. The format is binding. As to conditions: read-out: Kd (μM) ± SD ^a; labelled compound; 25 nM FITC-DOC, 0-30 μM IpaD, PBS, 23 °C, 30 min.

The results in this text go back to article PMC5761661 (Biochemistry, 2017).

Broadly, the Kd is the equilibrium constant for the complex coming apart.

Like-named read-outs stand apart in the source and are kept apart here.

Regarding “Wild-type IpaD (invasion plasmid antigen D) (from UniProt P18013 1-332) (natural protein)”, in assay [1], the Kd came out at 2000 nM. On to “IpaD D144A/N146A/Y149A triple mutant (from UniProt P18013 1-332) (natural protein)”, for which the Kd in assay [2] came out at 7400 nM; in assay [1], 2200 nM. As for “IpaD Y149A (from UniProt P18013 1-332) (natural protein)”, the Kd in assay [1] was determined as 500 nM. Turning to FITC-deoxycholate, the Kd in assay [3] was found to be 9.3 ± 1.8 µM.
